Source: patent US9284369B2, “Inhibition of angiogenesis” (Genentech, Inc., priority 2007, dated 2016)

Assays:
[1] = system: Bv8 and PKR2/EG-VEGFR2 expression; test: White blood cells from G-CSF treated donors; type: in vivo, human
Method: MaxiSorp® 96-well microwell plates (Nalge Nunc International, Rochester, N.Y.) were coated with 1.0 μg/ml 3F1 mouse monoclonal antibody (Genentech Inc.) in 50 mM carbonate buffer, pH 9.6, at 4° C. overnight. Plates were washed with PBS containing 0.05% polysorbate 20 and blocked with 0.5% bovine serum albumin, 15 p.p.m. (parts per million) Proclin 300 (Supelco, Bellefonte, Pa.) in PBS at room temperature for 1 h. After plates were washed, human Bv8 standards (0.020-2.5 ng/ml in 2-fold serial dilution, PeproTech, Rocky Hill, N.J.) and samples (minimum 1:10 dilution) in PBS containing 0.5% bovine serum albumin, 0.05% polysorbate 20, 15 p.p.m. Proclin 300 (Supelco, Bellefonte, Pa.) and 0.35N NaCl (sample buffer) were serially diluted and were added to each well. The plates were incubated for 2 hr at room temperature followed by a washing step. The bound Bv8 was detected by adding the secondary antibody, a biotinylated hamster anti-Bv8 antibody clone 3B8 (Genentech Inc.) followed by adding streptavidin-HRP (GE Healthcare, Buckinghamshire, United Kingdom) and 3,3′,5,5′-tetramethyl benzidine (Kirkegaard & Perry Laboratories, Gaithersburg, Md.) as the substrate. The reaction was stopped by adding 1 M phosphoric acid. Absorbance was read at 450 nm on a ThermoMax microplate reader (Molecular Devices, Menlo Park, Calif.). The titration curves of the standards were calculated using a four-parameter regression curve-fitting program (Genentech Inc). Human Bv8 concentration was calculated by extrapolating the optical density values of samples to the data range in the standard curve. The Bv8 ELISA was capable of measuring up to 10% lysis buffer and had the sensitivity to detect Bv8 as low as 0.20 ng/ml in tissue lysates. […] This ELISA could also detect mouse Bv8 but with less than 7% sensitivity.
Peripheral white blood cells were obtained from normal donors after 4-5 days of G-CSF treatment by apheresis collections (Cellular Therapy and Cell Processing Facilities, Fred Hutchinson Cancer Research Center, Seattle, Wash.). […]

Bv8 expression [2] = test: Bv8 expression in human leukemia cell lines; type: cell-based
Method: U937, HL-60, THP-1, Hel 92.1.7, KG-1, K562, Jurkat cells were obtained from the ATCC® (Manassas, Va.). Most cells were grown in 10% FBS-containing RPMI. KG-1 cells were grown in 20% FBS-containing Iscove's modified Dulbecco's medium. For THP-1 cells, 10% FBS-containing RPMI was used with Sodium Pyruvate, HEPES and β-mercaptoethanol. For regulation studies, 1 million cells with viability higher than 95% were used. Regulation studies were performed under both normoxia and hypoxia conditions for 4 hr in 1 ml HBSS media containing 0.2% BSA.

Bv8 expression [3] = test: Regulation of Bv8 gene expression in cultured mouse BMMNCs (Taqman); type: cell-based; conditions: for stimulation of Bv8 expression in CD11b+Gr1+ cells: 20 pg/ml G-CSF, 4 hrs
Method: RNA from tissues or cells was prepared using the RNeasy Mini Kit® (Qiagen). 50 ng total RNA per reaction was used for the real time PCR (Taqman™) analysis. For mouse/human Bv8 and EG-VEGF/Bv8 receptor 1 (PKR-1/EG-VEGFR1, R-1), testis RNA (BD Biosciences) served as control. For mouse/human EG-VEGF/Bv8 receptor 2 (PKR-2/EG-VEGFR2, R2), hypothalamus or whole brain (BD Biosciences) served as the control tissues. Reactions were run on 9600 Emulation mode of 7500 Real […] time PCR system (Applied Biosystems) and the absolute quantification with standard curve was used with Sequence Detection System (SDS) software. The expression level of each gene was further quantified against the house-keeping gene RPL19 in the same sample. To confirm the expression of VEGFR-1, VEGFR-2, EG-VEGF/Bv8 R1 and EG-VEGF/Bv8 R2 in the tumor-associated endothelial cells, standard RT-PCR was conducted using the Titan One Tube™ RT-PCR system (Roche) and the end products were checked on 2% agarose gel (Invitrogen) for the correct size. The sequence of Taqman™ primers are as follows: […]
Recombinant mouse MCP-1, MIP-1α, MIP-1β, MIP-2, bFGF, VEGF, GM-CSF, G-CSF, SDF-1 and TNFα were purchased from R&D Systems (Minneapolis, Minn.). Recombinant mouse KC, IFNγ, Bv8 (Prokineticin-2), IL-4, IL-10, IL-13, TGF-β were from PeproTech Inc. (Rocky Hill, N.J.). […] Conditioned media at 1:3 dilution were used (final FBS concentration was 0.17%). Data were normalized against total cell number. BM cells were flushed from mouse leg bones with DMEM containing 10% FBS. Cells were centrifuged at 1200 rpm for 5 min and resuspended in HBSS media containing 0.2% BSA (low endotoxin, Serologicals Corp. Norcross, Ga.). Two million cells were incubated in 24-well plates with various cytokines for 4 hr at 37° C. in a 5% CO2 incubator. Cells were then transferred in eppendorf tubes, centrifuged and lysed by RNA lysis buffer (Qiagen, Valencia, Calif.). Bv8 expression was assessed by Taqman™ with RPL19 (Ribosomal Protein L19) as the internal control gene. In some cases, CD11b+Gr1+ or CD11b−Gr1− BM cells were obtained using FACS sorting.

Bv8 expression [4] = conditions: previously reported; cited from earlier work

B1: G-CSF: recombinant granulocyte-CSF: mouse or human (R&D Systems) or human Neupogen (Amgen) (protein, chains of the INN, looked up)
chain: MTPLGPASSLPQSFLLKCLEQVRKIQGDGAALQEKLCATYKLCHPEELVLLGHSLGIPWAPLSSCPSQALQLAGCLSQLHSGLFLYQGLLQALEGISPELGPTLDTLQLDVADFATTIWQQMEELGMAPALQPTQGAMPAFASAFQRRAGGVLVASHLQSFLEVSYRVLRHLAQP
increase in Bv8 protein level in G-CSF mobilized mononuclear cells ([1]; ELISA, vs untreated donors): 10 fold | increase in Bv8 expression in G-CSF mobilized mononuclear cells ([1]; donors treated 4-5 days, vs untreated donors): About 4.5 fold | induction of PKR2/EG-VEGFR2 expression in mononuclear cells ([1]; vs un-treated control samples): ~2 fold | Bv8 expression in HL-60 (Bv8 expression [2]): Neither G-CSF nor GM-CSF affected Bv8 expression | increase in Bv8 expression in several leukemia cell lines (Bv8 expression [2]; 10 ng/ml, 4 hr): 2-3 fold | stimulation of Bv8 expression in CD11b+Gr1+ cells (Bv8 expression [3]; hypoxic conditions): ~10 fold | stimulation of Bv8 expression in CD11b+Gr1+ cells (Bv8 expression [3]; normoxic conditions): ~5 fold | Bv8 up-regulation in purified CD11b+Gr1+ cells (Bv8 expression [3]; 10 ng/ml, 4 hr): over 100 fold | up-regulation of Bv8 in unsorted BMMNCs (Bv8 expression [3]; 10 ng/ml, 4 hr): > 27 fold | up-regulation of Bv8 expression in mouse bone marrow cells and peripheral neutrophils (Bv8 expression [4]): > 30 fold
